Assay results published in patent US20220175942A1 (OXFORD UNIVERSITY INNOVATION, published 2022).
Positions count from the first letter of the chain named.

B1: CCL3_HUMAN (ligand)
chain: SLAADTPTACCFSYTSRQIPQNFIADYFETSSQCSKPGVIFLTKRSRQVCADPSEEWVQKYVSDLELSA
notes: Biotinylated (detected with streptavidin-Alexa647) in yeast display; AlexaFluor 647 labelled (Almac) in thermophoresis
B2: P1224_IXORI (other)
chain: SDLCKMEAESSPFKLPQSSLLDAPDEEGCKYQLLFVEAEGPLVVNCTKDCPNGKIRTVVEGELCIAMVKTSSSGEATGLVGSCKRGSCVKKDDPCRTFTLSEEGDDDEEDEEEEEDEEEDEEEDEEEEEEDEEEED
notes: Tick evasin; also called Evasin
B3: P1006_AMBCA (other)
chain: DTIGGIPGCGDPATTSAPEDQPKHYAVRTDKNGCKVMVIGTWMTKEDHNLLPPYISKERAPSGKVQLPASCKKNCHGKLKNLPNGTPCREVFGDLRRRRKHIKDGCKVGKCQNGLCVSEERIISCYLPPNITDPRPTHGPLAE
notes: as for B2
B4: P1014_AMBCA (other)
chain: DIIGGIPGCGDPTTTSAPEVPPKHFAVRTDKDGCTLMIIGTWMTTEDHNRLPPDIGEKRAPYGRVQLPASCKKNCHGKVKNLPNGTPCREVFGDPRRGRKHIKNGCTVGKCQSGLCVTDKRIISCYIPPNITDPIPTHGPWAE
notes: as for B2
B5: CCL17_HUMAN (ligand)
chain: ARGTNVGRECCLEYFKGAIPLRKLKTWYQTSEDCSRDAIVFVTVQGRAICSDPNNKRVKNAVKYLQSLERS
notes: as for B1
B6: P1209_AMBPA (other)
chain: KTDTKNAAGELPPKVAIPGCEDPATTKAPLPDDPRYYGVTIDKDGCQRKVLGSSQRQQRQVQNGRKPGRKGRGRRPVFVDLKLTVDCKRKCNGTYSQLPDGEPCLVCDGEPYGRHRTIKGGCYQGNCSSGQCHRGERKVNCYIPKNITNNVLNSVNLAE
notes: as for B2
B7: P1252_AMBAM (other)
chain: RGGAASVPANASIPGCGDAQTTPAAPEDQPKHYVVYRDGNGCEVKIIGTWMTTEDYNCLPDTFRKNRAPHGKVKLPASCKKTCGNAVQNLKDGTPCRKVFGDLGRRRNLIKNGCLVGACQSGLCVSGNRTISCYIPPNSTDTRATPGSFAE
notes: as for B2
B8: P993_AMBPA (other)
chain: HRHYDPNEPCLIAGLKTPRDALPAGCRYDCMIKKNQKLRDGLLCLDVPEKVVKRMVNYLNYSCPLGTCRKGICKRKHRNVRCQKYPVFYMSPPK
notes: Tick evasin

Key:
P1182_AMBMA = target: T1, P1182_AMBMA (Amblyomma maculatum, UniProt G3MJ83 27-115); assay: yeast surface display library FACS screen, labelled chemokine (col C: isolated in)
T1 construct: Tick evasin; also called Evasin
T1 sequence: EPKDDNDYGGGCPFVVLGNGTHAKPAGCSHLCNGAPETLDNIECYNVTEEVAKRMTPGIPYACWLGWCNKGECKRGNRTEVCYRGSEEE

P1181_AMBMA = target: T2, P1181_AMBMA (Amblyomma maculatum, UniProt G3MIX6 26-115); assay: as above
T2 construct: Tick evasin; also called Evasin
T2 sequence: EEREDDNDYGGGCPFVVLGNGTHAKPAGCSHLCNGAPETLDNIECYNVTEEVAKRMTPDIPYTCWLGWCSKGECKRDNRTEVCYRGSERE

P467_RHIPU = target: T3, P467_RHIPU (Rhipicephalus pulchellus, UniProt L7M8Z8 22-127); assay: as above
T3 construct: Tick evasin; also called Evasin
T3 sequence: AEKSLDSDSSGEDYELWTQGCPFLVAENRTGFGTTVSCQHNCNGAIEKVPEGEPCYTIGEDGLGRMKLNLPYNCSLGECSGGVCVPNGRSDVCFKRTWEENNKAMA

P1243_AMBAM [1] = target: T4, P1243_AMBAM (Amblyomma americanum, UniProt A0A0C9S461 26-123); assay: yeast surface display FACS re-test, >3 fold MFI over control (col D);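 note: yeast displaying putative tick Evasins stained with biotinylated human chemokine plus streptavidin-Alexa647, flow cytometry, positive when MFI exceeds 3-fold the empty-vector or no-chemokine background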
T4 construct: Tick evasin; also called Evasin
T4 sequence: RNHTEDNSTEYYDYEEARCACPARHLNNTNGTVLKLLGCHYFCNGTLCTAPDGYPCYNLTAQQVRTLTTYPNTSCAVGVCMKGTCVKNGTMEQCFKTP

P546_AMBCA [2] = target: T5, P546_AMBCA (Amblyomma cajennense, UniProt A0A023FBW7 22-118); assay: microscale thermophoresis, AlexaFluor 647 labelled chemokine
T5 construct: Tick evasin; also called Evasin
T5 sequence: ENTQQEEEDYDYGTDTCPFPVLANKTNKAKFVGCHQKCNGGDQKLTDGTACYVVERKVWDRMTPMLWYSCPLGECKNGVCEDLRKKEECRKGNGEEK

CXCL10_HUMAN [3] = target: T6, CXCL10_HUMAN (human, UniProt P02778 22-98); assay: yeast surface display library FACS screen, labelled chemokine (col C: isolated in)
T6 construct: Biotinylated (detected with streptavidin-Alexa647) in yeast display; AlexaFluor 647 labelled (Almac) in thermophoresis
T6 sequence: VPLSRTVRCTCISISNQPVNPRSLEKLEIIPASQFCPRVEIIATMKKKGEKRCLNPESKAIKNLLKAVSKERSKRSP

CCL3_HUMAN = target: B1; assay: as above
CCL19_HUMAN [4] = target: T7, CCL19_HUMAN (human, UniProt Q99731 22-98); assay: as above
T7 construct: Biotinylated (detected with streptavidin-Alexa647) in yeast display; AlexaFluor 647 labelled (Almac) in thermophoresis
T7 sequence: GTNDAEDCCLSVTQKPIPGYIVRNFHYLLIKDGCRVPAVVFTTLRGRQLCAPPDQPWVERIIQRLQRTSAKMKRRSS

CCL11_HUMAN = target: T8, CCL11_HUMAN (human, UniProt P51671 24-97); assay: as above
T8 construct: Biotinylated (detected with streptavidin-Alexa647) in yeast display; AlexaFluor 647 labelled (Almac) in thermophoresis
T8 sequence (P51671 24-97 limits assumed): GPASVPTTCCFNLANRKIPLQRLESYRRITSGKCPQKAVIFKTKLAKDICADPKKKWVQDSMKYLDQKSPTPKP

CCL1_HUMAN = target: T9, CCL1_HUMAN (human, UniProt P22362 24-96); assay: as above
T9 construct: Biotinylated (detected with streptavidin-Alexa647) in yeast display; AlexaFluor 647 labelled (Almac) in thermophoresis
T9 sequence: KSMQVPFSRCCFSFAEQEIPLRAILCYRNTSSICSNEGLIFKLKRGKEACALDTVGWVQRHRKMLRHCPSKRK

CXCL8_HUMAN = target: T10, CXCL8_HUMAN (human, UniProt P10145 28-99); assay: as above
T10 construct: Biotinylated (detected with streptavidin-Alexa647) in yeast display; AlexaFluor 647 labelled (Almac) in thermophoresis
T10 sequence: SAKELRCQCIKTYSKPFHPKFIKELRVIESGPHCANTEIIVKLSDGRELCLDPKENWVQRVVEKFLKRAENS

CCL25_HUMAN [5] = target: T11, CCL25_HUMAN (human, UniProt O15444 24-150); assay: as above
T11 construct: Biotinylated (detected with streptavidin-Alexa647) in yeast display; AlexaFluor 647 labelled (Almac) in thermophoresis
T11 sequence: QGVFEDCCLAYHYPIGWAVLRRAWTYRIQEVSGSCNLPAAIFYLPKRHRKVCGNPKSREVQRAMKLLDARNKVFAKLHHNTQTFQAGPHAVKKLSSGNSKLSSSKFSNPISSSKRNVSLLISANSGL

CCL22_HUMAN = target: T12, CCL22_HUMAN (human, UniProt O00626 25-93); assay: yeast surface display FACS re-test, >3 fold MFI over control (col D);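 note: yeast displaying putative tick Evasins stained with biotinylated human chemokine plus streptavidin-Alexa647, flow cytometry, positive when MFI exceeds 3-fold the empty-vector or no-chemokine background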
T12 construct: Biotinylated (detected with streptavidin-Alexa647) in yeast display; AlexaFluor 647 labelled (Almac) in thermophoresis
T12 sequence: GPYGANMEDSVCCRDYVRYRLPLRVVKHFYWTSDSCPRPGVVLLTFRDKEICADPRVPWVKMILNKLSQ

CCL5_HUMAN [6] = target: T13, CCL5_HUMAN (human, UniProt P13501 24-91); assay: as above
T13 construct: Biotinylated (detected with streptavidin-Alexa647) in yeast display; AlexaFluor 647 labelled (Almac) in thermophoresis
T13 sequence: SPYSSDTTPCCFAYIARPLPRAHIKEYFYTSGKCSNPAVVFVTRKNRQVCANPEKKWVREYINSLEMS

CCL19_HUMAN [7] = target: T7, CCL19_HUMAN; assay: as above
CCL4 = target: T14, CCL4 (human, UniProt P13236 24-92); assay: as above
T14 construct: Biotinylated (detected with streptavidin-Alexa647) in yeast display; also called human CCL4
T14 sequence: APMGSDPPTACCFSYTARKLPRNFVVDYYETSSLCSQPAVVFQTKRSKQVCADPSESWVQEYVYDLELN

P991_AMBCA = target: T15, P991_AMBCA (Amblyomma cajennense, UniProt A0A023FFD0 29-136); assay: yeast surface display library FACS screen, labelled chemokine (col C: isolated in)
T15 construct: Tick evasin; also called Evasin
T15 sequence: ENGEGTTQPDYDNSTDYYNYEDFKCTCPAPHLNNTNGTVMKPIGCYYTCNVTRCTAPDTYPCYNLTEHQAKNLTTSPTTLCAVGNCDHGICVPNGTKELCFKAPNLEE

P974_AMBCA = target: T16, P974_AMBCA (Amblyomma cajennense, UniProt A0A023FDY8 22-118); assay: as above
T16 construct: Tick evasin; also called Evasin
T16 sequence: T5 sequence with E8Q, S69E, E88D

P1243_AMBAM [8] = target: T4, P1243_AMBAM; assay: as above
P546_AMBCA [9] = target: T5, P546_AMBCA; assay: yeast surface display FACS re-test, >3 fold MFI over control (col D);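 note: yeast displaying putative tick Evasins stained with biotinylated human chemokine plus streptavidin-Alexa647, flow cytometry, positive when MFI exceeds 3-fold the empty-vector or no-chemokine background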
CCL5_HUMAN [10] = target: T13, CCL5_HUMAN; assay: yeast surface display library FACS screen, labelled chemokine (col C: isolated in)
CCL18_HUMAN = target: T17, CCL18_HUMAN (human, UniProt P55774 21-89); assay: yeast surface display FACS re-test, >3 fold MFI over control (col D);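 note: yeast displaying putative tick Evasins stained with biotinylated human chemokine plus streptavidin-Alexa647, flow cytometry, positive when MFI exceeds 3-fold the empty-vector or no-chemokine background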
T17 construct: Biotinylated (detected with streptavidin-Alexa647) in yeast display; AlexaFluor 647 labelled (Almac) in thermophoresis
T17 sequence: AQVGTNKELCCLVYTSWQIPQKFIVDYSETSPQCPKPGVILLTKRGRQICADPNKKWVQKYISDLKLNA

CXCL10_HUMAN [11] = target: T6, CXCL10_HUMAN; assay: as above
CCL20_HUMAN [12] = target: T18, CCL20_HUMAN (human, UniProt P78556 27-96); assay: as above
T18 construct: Biotinylated (detected with streptavidin-Alexa647) in yeast display; AlexaFluor 647 labelled (Almac) in thermophoresis
T18 sequence (P78556 27-96 limits assumed): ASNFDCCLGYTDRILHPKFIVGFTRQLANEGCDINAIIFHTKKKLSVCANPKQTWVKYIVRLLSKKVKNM

CCL25_HUMAN [13] = target: T11, CCL25_HUMAN; assay: as above
CCL8_HUMAN = target: T19, CCL8_HUMAN (human, UniProt P80075 24-99); assay: as above
T19 construct: Biotinylated (detected with streptavidin-Alexa647) in yeast display; AlexaFluor 647 labelled (Almac) in thermophoresis
T19 sequence: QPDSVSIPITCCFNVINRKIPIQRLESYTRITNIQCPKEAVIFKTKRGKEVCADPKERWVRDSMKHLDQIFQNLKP

CCL17_HUMAN [14] = target: B5; assay: as above
CCL20_HUMAN [15] = target: T18, CCL20_HUMAN; assay: yeast surface display library FACS screen, labelled chemokine (col C: isolated in)
CCL17_HUMAN [16] = target: B5; assay: as above

B1
binding result (P1182_AMBMA): binds | binding result (P1181_AMBMA): binds | binding result (P467_RHIPU): binds | binding result (P1243_AMBAM [1]): binds | Kd (P546_AMBCA [2]): 171 nM

B2
binding result (CXCL10_HUMAN [3]): binds | binding result (CCL3_HUMAN): binds | binding result (CCL19_HUMAN [4]): binds

B3
binding result (CCL11_HUMAN): binds | binding result (CCL1_HUMAN): binds | binding result (CXCL8_HUMAN): binds | binding result (CCL25_HUMAN [5]): binds | binding result (CCL22_HUMAN): binds | binding result (CCL5_HUMAN [6]): binds | binding result (CCL19_HUMAN [7]): binds

B4
binding result (CCL11_HUMAN): binds | binding result (CCL1_HUMAN): binds | binding result (CCL25_HUMAN [5]): binds | binding result (CCL4): binds

B5
binding result (P991_AMBCA): binds | binding result (P974_AMBCA): binds | binding result (P1243_AMBAM [8]): binds | binding result (P546_AMBCA [9]): binds

B6
binding result (CCL11_HUMAN): binds | binding result (CCL5_HUMAN [10]): binds | binding result (CCL1_HUMAN): binds | binding result (CXCL8_HUMAN): binds | binding result (CCL18_HUMAN): binds | binding result (CXCL10_HUMAN [11]): binds | binding result (CCL20_HUMAN [12]): binds | binding result (CCL25_HUMAN [13]): binds | binding result (CCL19_HUMAN [7]): binds | binding result (CCL8_HUMAN): binds | binding result (CCL17_HUMAN [14]): binds

B7
binding result (CCL11_HUMAN): binds | binding result (CCL20_HUMAN [15]): binds | binding result (CCL17_HUMAN [16]): binds

B8
binding result (CCL11_HUMAN): binds | binding result (CCL20_HUMAN [15]): binds | binding result (CCL1_HUMAN): binds | binding result (CXCL8_HUMAN): binds | binding result (CCL25_HUMAN [5]): binds | binding result (CCL17_HUMAN [16]): binds | binding result (CCL5_HUMAN [6]): binds
